# Measurements published in patent US20150141617A1, “PRODUCTION AND PURIFICATION OF ACTIVE EUKARYOTIC FORMYLGLYCINEGENERATING ENZYME (FGE) VARIANTS” (Universität Bielefeld, priority 2013, published 2015).
# The star is where a group is joined. Decanoyl = CCCCCCCCCC(=O)*; CH2Cl = ClC*
# How the values were obtained:
# [1] = target: T1, recombinant furin (rFurin) (Homo sapiens, UniProt P09958); assay: In vitro furin cleavage assay; type: biochemical; details: 25 μM inhibitor, HT1080 cell lysate
# T1 construct: purchased NEB
# T1 sequence (P09958 108-794): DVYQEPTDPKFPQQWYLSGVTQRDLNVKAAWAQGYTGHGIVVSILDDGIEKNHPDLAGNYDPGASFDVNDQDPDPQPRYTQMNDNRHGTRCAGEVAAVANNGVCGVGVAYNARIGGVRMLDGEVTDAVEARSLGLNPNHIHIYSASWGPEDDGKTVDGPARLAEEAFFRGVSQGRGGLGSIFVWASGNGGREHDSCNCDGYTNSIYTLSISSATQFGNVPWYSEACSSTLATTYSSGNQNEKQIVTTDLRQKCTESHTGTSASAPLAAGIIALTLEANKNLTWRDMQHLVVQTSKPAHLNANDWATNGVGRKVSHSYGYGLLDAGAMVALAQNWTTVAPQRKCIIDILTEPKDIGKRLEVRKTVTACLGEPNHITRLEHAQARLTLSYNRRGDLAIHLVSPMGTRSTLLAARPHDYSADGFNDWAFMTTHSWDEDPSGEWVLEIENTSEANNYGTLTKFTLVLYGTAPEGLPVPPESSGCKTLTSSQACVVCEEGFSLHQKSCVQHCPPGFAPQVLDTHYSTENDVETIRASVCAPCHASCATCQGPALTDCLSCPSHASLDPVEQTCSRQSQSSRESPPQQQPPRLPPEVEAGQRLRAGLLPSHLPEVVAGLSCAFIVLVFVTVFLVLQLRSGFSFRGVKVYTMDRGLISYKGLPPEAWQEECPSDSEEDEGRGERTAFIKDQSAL
# Experimental: (§1) CHO-FD11 cells stably expressing FGE-His6 or HT1080 cells were grown for 24 h, and cells and medium were harvested. For treatment with furin in vitro cell pellets were resuspended in HEPES pH 7.5 buffer containing 1 mM CaCl2 and 0.5% Triton X-100 and lysed in the absence of protease inhibitors by sonication on ice. Appropriate amounts of cell lysate and medium were incubated for 3 h at 25° C. with 4 units of furin (NEB) with or without 25 μM decanoyl-RVKR-CMK (Alexis biochemicals) as indicated in the figures. For in vivo treatment, HT1080 Tet-On cells were transiently transfected with pBI-FGE-HA and 4 h post-transfection, the medium was replenished with medium containing 20 ng/mL doxycycline and various concentrations of decanoyl-RVKR-CMK or only DMSO as a carrier control. The cells and medium were collected after 16 h of induction/treatment for further analysis. The samples were boiled in Laemmli buffer and analyzed by SDS-PAGE and western blotting with FGE antiserum.
# In mammals, the proproteinconvertase family comprises nine enzymes that differ in their substrate specificity and tissue-specific expression and/or subcellular localization (17). Furin is the best characterized mammalian PC with a ubiquitous tissue distribution and it is the major convertase in the secretory pathway. To analyze the role of furin in the processing of FGE the inventors expressed FGE in cells that are deficient for furin. […] When cell homogenate and medium from CHO-FD11 cells stably expressing FGE-His were treated with commercially available recombinant furin (rFurin), almost half the amount of FGE was processed, as observed for both cells and medium (FIG. 12D). Using this in vitro furin cleavage assay, the inventors also examined whether endogenous intracellular FGE is susceptible to furin processing. Indeed, rFurin readily converted almost 90% of endogenous fl-FGE from untransfected HT1080 cells to the truncated form (FIG. 12E).
# Although FGE is an ER resident protein, it lacks a canonical ER-retention motif. […] In this study, using the in vitro furin cleavage assay, the inventors assessed furin-mediated processing of the FGE-ERp44 covalent complex (FIG. 8). Homogenates, pre-treated with NEM (to prevent post-lysis disulfide shuffling), from HT1080 cells expressing either FGE alone or FGE plus myc-ERp44 together from a bi-directional promoter were incubated with rFurin and analyzed by SDS-PAGE under non-reducing conditions. Upon overexpression, intracellular FGE via its N-terminal cysteines (C50 and C52) forms covalently cross-bridged homodimers (FIG. 15, lane 1 and 2) and, additionally, FGE-ERp44 heterodimers when co-expressed with ERp44 (FIG. 15, lane 4 and 6) as previously observed (13). Removal of the N-terminus by furin cleavage should lead to a disappearance of the homo-/hetero-dimeric FGE forms, which serves as an indicator for accessibility of the furin cleavage motif in FGE.
# [2] = tested on: PCs (furin or furin-like convertases); assay: Treatment of HT1080 Tet-On cells expressing FGE with RVKR-CMK inhibitor; type: cell-based, human; details: increasing concentrations of the inhibitor, 16 h
# Experimental: as §1
# In order to verify that the N-terminus of FGE containing the RYSR motif is subject to processing by furin or furin-like convertases, the inventors studied the secretion profile of FGE in cells in the presence of decanoyl-RVKR-ChloroMethylKetone (CMK), an inhibitor for PCs (FIG. 12A). […]
substance,measurement,setting,value
"decanoyl-RVKR-ChloroMethylKetone (Decanoyl-RVKR-CH2Cl) [RVKR-CMK, reference compound]",inhibition of furin-mediated processing of FGE,[1],completely abrogated
same,amount of the truncated form of FGE in the secretions,[2],decreased by the inhibitor in a concentration dependent manner
